Measurements from patent publication US20250257332A1, “TRUNCATED AND FUSION PROTEINS” (Monash University, priority 2021, published 2025).
Entries after “also recorded” stand apart in the source; their conditions may differ.

Legend:
[1] = target: T1, recombinant mouse CCR5 (Mus musculus, UniProt P51682); test: NAMPT competitive binding to CCR5 (ELISA)
T1 construct: purchased MyBioSource
Method: hrNAMPT competitive binding to mrCCR5: ELISA plates (Medium binding, Greiner Bio-One) were coated with 1% BSA or 20 nM of recombinant mouse CCR5 (MyBioSource) in PBS overnight at 4° C. Then, wells were blocked for 1 h at room temperature with 1% BSA in PBS containing 0.05% Tween-20 (PBS-T). Wells were washed 3 times with PBS-T and further incubated with hNAMPTcif at increasing concentration (0 nM to 100 nM) for 1 h in PBS-T with 0.1% BSA containing 100 nM hrNAMPT (1) (Peprotech). Bound hrNAMPT (1) molecules were detected using a biotinylated antibody for NAMPT and HRP-streptavidin (Human PBEF/Visfatin DuoSet ELISA, R&D Systems). Signals obtained on BSA-coated wells were used to remove non-specific binding for each hrNAMPT concentrations to obtain specific binding values. Specific binding data were fitted by non-linear regression with Prism 7 to obtain the half maximal inhibitory concentration (IC50) of hNAMPTnif using A450nm=A450nmMin+(A450nmMax−A450nmMin)/(1+10^(X-LogIC50)).

[2] = test system: C2C12 murine myoblast cells; test: C2C12 cell proliferation, CyQuant Proliferation Assay kit; format: cell-based, mouse; settings: 48 hours
Method: FIG. 7. Human NAMPT variants stimulate muscle progenitor proliferation. C2C12 mouse myoblasts were treated with 20 nM full length NAMPT (NAMPT) or NAMPT variants for (NAMPTxxx-xxx, where xxx are amino acid numbers) 48 hours. Quantification of cell proliferation was performed using CyQuant Proliferation Assay kit. […] Box and whiskers denote median with minimum and maximum values. n=4-5 independent experiments per protein. Statistical significance is indicated as exact p-value. […] Significance between conditions were analysed by one-way ANOVA with Tukey post-hoc test.
Human NAMPTcif (hNAMPTcif) and truncated variants of hNAMPTcif were designed by progressively removing N-terminal regions containing positively charged amino acids. Four truncations were produced and numbered T1 to T4. Recombinant protein was produced using a bacterial expression system. hNAMPTcif variants were purified by FPLC using His-tag affinity purification. Cell proliferation assays were performed using C2C12 murine myoblast cells treated with purified recombinant hNAMPTcif variants, as well as full length NAMPT. Cells were treated with 10 nM of recombinant protein for 48 hours in DMEM supplemented with 2% foetal bovine serum at 37° C., 5% CO2. PBS treatment was used as a negative control. 10% foetal bovine serum was used as positive control. Quantification of proliferation was performed using commercially-available CyQuant Proliferation Assay kit (Thermo Fisher Scientific) according to manufacturer's instructions and read using a Synergy H1 plate reader (BioTek). Data were presented as percentage increase versus.
The heparin-binding sequence of placenta growth factor 2 (PIGF2) was fused to the N-terminus of NAMPTcif and produced using a bacterial expression system. PIGF-NAMPTcif was purified by FPLC using His-tag affinity purification followed by size exclusion chromatography. Cell proliferation assays were performed using C2C12 murine myoblast cells treated with purified recombinant NAMPTcif and full length NAMPT. Cells were treated with 2 nM, 10 nM and 20 nM concentrations of recombinant protein for 48 hours in DMEM supplemented with 2% foetal bovine serum at 37° C., 5% CO2. PBS treatment was used as a negative control. 10% foetal bovine serum was used as positive control. Quantification of proliferation was performed using commercially-available CyQuant Proliferation Assay kit (Thermo Fisher Scientific) according to manufacturer's instructions and read using a Synergy H1 plate reader (BioTek). Data were presented as percentage increase versus negative control. A two-tailed unpaired t-test was used to determine statistical significance.

[3] = target: T2, TLR4 (Homo sapiens, UniProt O00206); test: TLR4 signalling assay in HEK-Blue TLR4 reporter cells; format: cell-based; settings: 19 nM; 24 hours; plus 5 ug/ml polymyxin B; listed as NAMPTcif
T2 construct: host or cells: HEK-Blue TLR4 reporter cell line
T2 sequence (O00206 24-839): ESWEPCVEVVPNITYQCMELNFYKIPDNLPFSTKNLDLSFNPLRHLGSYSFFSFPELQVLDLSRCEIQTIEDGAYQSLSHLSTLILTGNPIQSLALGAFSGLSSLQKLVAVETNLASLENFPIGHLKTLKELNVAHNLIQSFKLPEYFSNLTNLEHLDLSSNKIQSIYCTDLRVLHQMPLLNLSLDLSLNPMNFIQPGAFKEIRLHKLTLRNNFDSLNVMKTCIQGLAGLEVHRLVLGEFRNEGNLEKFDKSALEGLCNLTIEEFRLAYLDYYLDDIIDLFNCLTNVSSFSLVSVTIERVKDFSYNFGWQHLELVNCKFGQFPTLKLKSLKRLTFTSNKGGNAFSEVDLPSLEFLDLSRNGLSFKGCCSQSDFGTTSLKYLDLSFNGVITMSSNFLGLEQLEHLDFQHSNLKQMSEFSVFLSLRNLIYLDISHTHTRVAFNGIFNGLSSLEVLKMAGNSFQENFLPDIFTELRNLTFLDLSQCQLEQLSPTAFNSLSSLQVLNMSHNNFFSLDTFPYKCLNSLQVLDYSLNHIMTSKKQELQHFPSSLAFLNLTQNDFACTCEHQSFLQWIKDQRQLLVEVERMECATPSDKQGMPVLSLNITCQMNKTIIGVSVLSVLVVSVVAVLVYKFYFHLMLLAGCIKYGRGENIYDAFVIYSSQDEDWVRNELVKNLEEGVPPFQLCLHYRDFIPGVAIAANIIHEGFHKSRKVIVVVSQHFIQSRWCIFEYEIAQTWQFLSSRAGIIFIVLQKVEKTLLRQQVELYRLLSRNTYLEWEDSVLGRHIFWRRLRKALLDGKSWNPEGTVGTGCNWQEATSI
T2 sequence (Q9Y6Y9 17-160 partner limits assumed): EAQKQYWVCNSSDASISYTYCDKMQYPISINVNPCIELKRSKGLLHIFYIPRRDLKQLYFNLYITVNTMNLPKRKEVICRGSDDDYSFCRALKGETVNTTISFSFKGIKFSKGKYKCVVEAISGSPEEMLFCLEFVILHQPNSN
Method: TLR4 receptor activation was assayed using the HEK-Blue TLR4 reporter cell line (InvivoGen). In this cell line, TLR4 and downstream NFκB signalling induces expression and secretion of alkaline phosphatase that can be quantified via colorimetric assay. HEK-Blue cells were treated for 24 hours with 19 nM of NAMPTcif or PIGF-NAMPTcif plus 5 ug/ml polymyxin B to ensure no TLR4 activation by any trace amounts of endotoxin. TLR4 activity was reported as the equivalent amount of activation by bacterial lipopolysaccharides (LPS), thus a standard curve was generated by serial dilutions of LPS from 0.01 to 20 ng/ml. Detection of alkaline phosphatase activity was performed using a QUANTI-Blue kit (InvivoGen) according to manufacturer's instructions and plates were read using a Synergy H1 plate reader (BioTek). Data were presented as equivalent LPS concentration in ng/ml. A one-way ANOVA with Dunnett's multiple comparisons test was performed to determine statistical significance.

[4] = test system: Human primary satellite cells; test: Human primary satellite cell proliferation, CyQuant; format: cell-based; settings: 20 nM; 48 hours; media with IGF-1 and FGF-2
Method: (§1) FIG. 8. Human NAMPT variants stimulate human satellite cell proliferation. Human primary satellite cells were treated with 20 nM full length NAMPT (NAMPT) or NAMPT variants (NAMPTxxx-xxx, where xxx are amino acid numbers) for 48 hours. The media contained the growth factors IGF-1 and FGF-2 as well. Quantification of cell proliferation was performed using CyQuant Proliferation Assay kit. […] Treatment with 20% FBS was used as a positive control. Box and whiskers denote median with minimum and maximum values. n=6-10 independent experiments per protein. Statistical significance is indicated as p-value and determined by one-sample t-test.
The inventors next sought to compare the activity of full length NAMPT, NAMPT402-491 and NAMPT422-491 on human satellite cell proliferation. Human primary satellite cells were treated with 20 nM full length NAMPT (NAMPT) or NAMPT402-491 and NAMPT422-491 for 48 hours.

[5] = test system: Human primary endothelial cells derived from umbilical vein; test: Human primary endothelial cell proliferation, CyQuant; format: cell-based; settings: 20 nM; 48 hours
Method: as §1, with “9.” for “8.”, “endothelial” for “satellite”, “cells derived from umbilical vein” for “cells”, “hours.” for “hours. The media contained the growth factors IGF-1 and FGF-2 as well.”, “10%” for “20%”, “n=6” for “n=6-10”
Similarly, the inventors next investigated the activity of full length NAMPT, NAMPT402-491 and NAMPT422-491 on human endothelial cell proliferation. Human endothelial cells were derived from umbilical vein and treated with 20 nM full length NAMPT (NAMPT) or NAMPT variants for 48 hours.

[6] = test system: needle-stab muscle injury in zebrafish larvae; test: Larval zebrafish muscle injury and EdU pulse-chase; format: in vivo; settings: 57 nM in Ringer's solution immediately after injury at 4 dpf; EdU at 2 dpi
Method: Zebrafish larvae (4 dpf) were anaesthetized in 0.01% tricaine (MS-222) (Sigma-Aldrich) in Ringer's solution. Needle-stab injury was carried out in the dorsal myotome, consisting in a single 30-gauge needle puncture that generates an extensive injury with many damaged muscle fibres. Nampt fragment treatments were carried out by incubating 4 dpf needle-stab-injured larvae in 57 nM Nampt in Ringer's solution immediately after injury. Needle-stab-injured larvae at 6 dpf (2 dpi) were transferred into Ringer's solution containing 50 μg ml-1 EdU (Thermo Fisher Scientific) for 1 h and chased for a further 1.5 h before fixation. Samples were developed using the Click-iT EdU Alexa Fluor 647 imaging Kit (Thermo Fisher Scientific) following the manufacturer's protocol, followed by a phalloidin immunostaining (Thermo Fisher Scientific). EdU+ cells in a region encompassing two myotomes on either side of the injury were quantified as the number of EdU+ cells outside the injury region. EdU+ cells in the caudal haematopoietic tissue were excluded from this analysis. Statistical analysis has been conducted using Two-way ANOVA with Tuckey's multiple comparison test.

T1 sequence (P51682 whole entry): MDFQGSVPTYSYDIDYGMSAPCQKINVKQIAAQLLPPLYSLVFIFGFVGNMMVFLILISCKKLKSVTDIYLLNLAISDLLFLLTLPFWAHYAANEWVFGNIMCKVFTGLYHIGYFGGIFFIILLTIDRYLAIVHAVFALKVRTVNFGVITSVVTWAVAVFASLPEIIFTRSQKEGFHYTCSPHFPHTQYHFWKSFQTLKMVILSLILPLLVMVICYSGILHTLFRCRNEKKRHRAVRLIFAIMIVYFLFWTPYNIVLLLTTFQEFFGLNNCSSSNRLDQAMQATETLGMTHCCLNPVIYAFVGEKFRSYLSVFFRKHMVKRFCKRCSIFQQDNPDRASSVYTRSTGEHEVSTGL

B1: NAMPT402-491: Human NAMPT cytokine finger, residues 402-491 of full length NAMPT, SEQ ID NO: 1 (protein, listed as Homo sapiens)
chain: SYVVTNGLGINVFKDPVADPNKRSKKGRLSLHRTPAGNFVTLEEGKGDLEEYGQDLLHTVFKNGKVTKSYSFDEIRKNAQLNIELEAAHH
inhibition of NAMPT binding to CCR5 [1]: inhibits the binding of NAMPT to CCR5 | cell proliferation, percentage increase vs PBS-treated control ([2]; 10 nM, compared with full length NAMPT, listed as cif): stimulates satellite cell proliferation in a dose-dependent manner | cell proliferation, percentage increase vs PBS-treated control ([2]; 10 nM, compared with full length NAMPT, listed as hNAMPTcif): enhanced stimulated satellite cell proliferation compared to full length hNAMPT | cell proliferation, percentage increase vs PBS-treated control ([2]; 20 nM, compared with full-length NAMPT): enhanced cellular proliferation compared to full-length NAMPT | TLR4 activation (equivalent LPS concentration) [3]: does not induce TLR4 activity compared to full length NAMPT; also recorded: abrogated TLR4 activity | satellite cell proliferation, percentage increase vs PBS-treated control [4]: increased satellite cell proliferation compared to full length NAMPT | endothelial cell proliferation, percentage increase vs PBS-treated control [5]: increased endothelial cell proliferation compared to full length NAMPT and NAMPT422-491 | cell proliferation (EdU-positive cells) within the injury zone [6]: significant increase in cell proliferation within the injury zone
